We go through two molecules from patent US8709981B2, “Isolated Australian coral reef fluorescent proteins and cell-based kinase or phosphatase platforms for cancer drug development” (priority 2009, dated 2014).

The subject of series [1] is protein kinases (PKA, PKC, Akt1, CamKII, MAPK). The experiment in a line: Excitation and emission spectra after phosphorylation. Type of series: biochemical. From the text:
FIG. 11 discloses that phosphorylation of PhosFluor alters its spectral properties. The excitation and emission spectra of PhosFluor and eGFP are depicted under control conditions (no kinase) and after phosphorylation by the indicated kinases. The excitation and emission spectra for eGFP are all superimposed under a single curve, while phosphorylation of PhosFluor alters both spectra compared to control conditions.
The excitation and emission spectra of PhosFluor were also obtained under control conditions and when phosphorylated (FIG. 10A). […] A marked shift in the emission spectrum of PhosFluor was observed when this molecule was incubated with PKA, PKC or Akt1 (FIG. 10B). […] These observations are highly significant because changes in the emission spectrum permits ratiometric measurements to be carried out, a highly robust method for quantitating spectral change in a fluorophore. Moreover, the effects reported here were carried out on the unmodified native PhosFluor protein. Enhanced effects would be expected if this protein is optimized for phosphorylation and/or expression as disclosed herein.

For series [2], the system named is PKA, PKC, MAPK, cdc2, Akt1, Src. The experiment in a line: Western blot / SDS-PAGE analysis of phosphorylation. It is filed as biochemical. The procedure: Equal quantities of PhosFluor or eGFP incubated with either PKC or Src for the indicated times (in hours) were resolved on 10% SDS-PAGE gels and immunoblotted to antibodies that reveal total protein (a polyhistidine monoclonal antibody) or phospho-tyrosine. M designates the position of the monomeric form of fluorescent protein while P designates the position of phosphorylated forms of the protein that have undergone a motility shift due to increased negative charge.
Phosphorylation is known to increase the negative charge on proteins, which commonly results in an upward shift in the apparent molecular weight of the protein when resolved by SDS-PAGE (sodium dodecyl sulfate-polyacrylamide gel electrophoresis).

Series [3] is described as follows: Fluorescence intensity at different pH (Tris buffer). It is filed as physicochemical. The note with it: from pH 6.3 to pH 8.5. From the text: A panel of fluorescent proteins was subjected to different pH conditions.
In the next series the test system is protein kinases. The experiment in a line: Fluorescence intensity of recombinant protein incubated with protein kinases. Type of series: biochemical.
In the next series the test system is alkaline phosphatase. The note with it: incubated with alkaline phosphatase.
Series [4] can be described thus: Fluorescence emission spectrum compared to eGFP. The note with it: samples normalized by absorption at 480 nm. Type of series: physicochemical. From the text: (§1) The fluorescence emission of a disclosed fluorescent polypeptide having the amino acid sequence set forth in SEQ ID NO: 24 was compared to eGFP. eGFP is one of the brightest fluorescent proteins created to date. Both the disclosed fluorescent polypeptide having the amino acid sequence set forth in SEQ ID NO: 24 and eGFP were cloned into a modified pET-HT vector with a TEV-cleavable His-tag, expressed in BL21-DE3 E. coli, and purified via Ni-NTA resin. The concentration of each sample was normalized by the intensity of the respective absorption spectrum at 480 nm.
(§2) Fluorescence correlation spectroscopy (FCS) measurements (not shown) also indicated the protein having the sequence set forth in SEQ ID NO: 24 is monomeric and about 1.4 times as bright as eGFP. Additionally, as FIG. 6 clearly indicates, the peak emission intensity of the disclosed fluorescent polypeptide having the amino acid sequence set forth in SEQ ID NO: 24 is about 50% greater than that of eGFP.

The nature of series [5]: Fluorescence correlation spectroscopy (FCS) compared to eGFP. It is filed as physicochemical.
Source text: as §1, §2

Method for alkaline phosphatase: B. Equal quantities of the recombinant PhosFluor or eGFP were subjected to phosphorylation by the indicated protein kinases or to dephosphorylation with alkaline phosphatase (Alk Phos). Fluorescence intensity (representing the change in emission of a part of the emission spectrum compared to the value at 0 hours) was measured over time during the reaction.
To determine if the fluorescence of PhosFluor could be modulated by phosphorylation, recombinant PhosFluor was incubated with different protein kinases and fluorescence was monitored (FIG. 9B).

B1: PhosFluor: fluorescent protein having the amino acid sequence set forth in SEQ ID NO: 10, isolated from Scleractinia (protein)
chain: MSAHIKPNMKIKLRMEGDVNGHPFVITGEGSGKPYEGTHAIDLKVKEGGPLPFAYDILTAAFQYGNRAFTKYPADIPDYFKQSFPDGYCWERSMVFEDQGICVVKSVISLDKKEPDCFNYDIRFYGVNFPATGPVMKKKTVKWEPSTQTMYERDGVLVGDVNMALLLEGGGHHRCDFKSTYRAKGVVLNMPGNHYVDHRIEIIHHDKGYNSVTVHESAEARHCSLPSKAK
modifications: Scleractinia sp
In the case of B1, the “excitation spectrum upon phosphorylation” value in series [1] (different protein kinases, including Akt1) was “dramatically altered”. Moreover, in series [1] (incubated with PKA, PKC or Akt1), the “emission spectrum upon phosphorylation” value was “marked shift”. Also, the “SDS-PAGE mobility shift upon phosphorylation by PKC” value in series [2] (PKC) was “multiple higher molecular weight species”. The “substrate for PKC and Src” value in series [2] (PKC or Src, immunoblot) is on record as “avid substrate”. Also, in series [2] (Western blot, by PKA, PKC, MAPK, cdc2 and Akt1), the “phosphorylation of serine and threonine sites” value is given as “phosphorylated”. The molecule also showed an increase in brightness in series [3] greater than 100%. Moreover, the “fluorescence intensity when incubated with cdc2 and MAPK” value in the series with protein kinases (cdc2 and MAPK, data not shown) is “increased above background levels”. Moreover, the “fluorescence intensity in the absence of added protein kinase” value in the series with protein kinases (no added protein kinase) is on record as “increased to a lesser degree”. Besides, the “fluorescence intensity when treated with various protein kinases” value with protein kinases (recombinant protein incubated with kinases) is “dramatic increase in fluorescence intensity”. The “increase in fluorescence intensity over time with alkaline phosphatase” value with alkaline phosphatase is given as “virtually abolished the increase in fluorescence intensity”.

B2: SEQ ID NO: 24: disclosed fluorescent polypeptide having the amino acid sequence set forth in SEQ ID NO: 24 (protein, listed as Lobophyllia hemprichii)
chain: MNVIKTDMKMKLRMVGAVNGHKFEIAGEGKGKPFEGKQTMNLEVLVGGPLPFAFDILTTVFDYGNRVFVKYPRDIADYFKQSFPEGFSWERSMAYEDGGICLATNNITLMKGDCFLYEIRFDGVNFPANSPVLQKKTV
Consider B2, for which the “peak emission intensity greater than that of eGFP” value in series [4] was “about 50%”. For the same molecule, in series [5], the oligomeric state entry is recorded as “monomeric”. Besides, the “brightness relative to eGFP” value in series [5] (as bright as eGFP) is given as “about 1.4 times”.
